Results taken from patent publication EP1500662A2 (CORNELL RESEARCH FOUNDATION, INC., dated 2005).
Substitutions are numbered along the chain they refer to. Names may count otherwise.

B1: C52F peptide (peptide)
peptide: NHTTWMEWDREINNYTSLIHSLIEESQNLQEKNEQELLELDKWASLWNWFNIKIK
B2: C52L peptide (peptide)
peptide: B1 peptide with I23F, N33A, L38F

Key:
Assay in all cases: cell-based or functional assay
[1] = biological target: envelope glycoprotein of HIV-1 NL4-3 (HIV-1 NL4-3)
[2] = biological target: envelope glycoprotein of HIV-1 Case C 7/86 (HIV-1 Case C 7/86)
[3] = biological target: envelope glycoprotein of HIV-1 BZ162 (HIV-1 BZ162)
[4] = biological target: envelope glycoprotein of HIV-1 CM.235 (HIV-1 CM.235)
[5] = biological target: envelope glycoprotein of HIV-1 DJ258 (HIV-1 DJ258)
[6] = biological target: envelope glycoprotein of HIV-1 JFRL (HIV-1 JFRL)
[7] = biological target: envelope glycoprotein of HIV-1 UG270 (HIV-1 UG270)
[8] = biological target: envelope glycoprotein of HIV-1 94ZW103 (HIV-1 94ZW103)

Binder | IC50 (nM), Human PBMC Infectivity Assays [1] [nM] | IC50 (nM), Human PBMC Infectivity Assays [2] [nM] | IC50 (nM), Human PBMC Infectivity Assays [3] [nM] | IC50 (nM), Human PBMC Infectivity Assays [4] [nM] | IC50 (nM), Human PBMC Infectivity Assays [5] [nM] | IC50 (nM), Human PBMC Infectivity Assays [6] [nM] | IC50 (nM), Human PBMC Infectivity Assays [7] [nM] | IC50 (nM), Human PBMC Infectivity Assays [8] [nM]
B1 | 23 | 49 | 2 | 11 | 9 | 5 | 68 | 4
B2 | 20 | 17 | 3 |  | 11 | 6 | 61 | 3
